Assay results published in EP4733314A1, “NOVEL BISPECIFIC FUSION PROTEIN AND USE THEREOF” (Slbigen Inc., priority 2023, dated 2024).

B1: MG12-6 (Fc fusion)
chain 1: HGEGTFTSDVSSYLEGQAAKEFIAWLVKGGPSSGAPPPSGGGGSGGGGSGGGGSEKEKEEQEERTHTCPPCPSHTQPLGVFLFPPKPKDQLMISRTPEVTCVVVDVSQEDPEVQFNWYVDGVEVHNAKTKPREEQFNSTYRVVSVLTVLHQDWLNGKEYKCKVSNKGLPSSIEKTISKAKGQPREPQVYTLPPCQEEMTKNQVSLWCLVKGFYPSDIAVEWESNGQPENNYKTTPPVLDSDGSFFLYSRLTVDKSRWQEGNVFSCSVLHEALHNHYTQKSLSLSLGK
chain 2: HGDGSFSDEMNTILDNLAARDFINWLIQTKITDGGGGGSGGGGSGGGGSAKNTTAPATTRNTTRGGEEKKKEKEKEEQEERTHTCPPCPSHTQPLGVFLFPPKPKDQLMISRTPEVTCVVVDVSQEDPEVQFNWYVDGVEVHNAKTKPREEQFNSTYRVVSVLTVLHQDWLNGKEYKCKVSNKGLPSSIEKTISKAKGQPREPQVCTLPPSQEEMTKNQVSLSCAVKGFYPSDIAVEWESNGQPENNYKTTPPVLDSDGSFFLVSRLTVDKSRWQEGNVFSCSVLHEALHNHYTQKSLSLSLGK
B2: MG12-7 (Fc fusion)
chain 1: HGEGTFTSDVSSYLEGQAAKEFIAWLVKGGPSSGAPPPSGGGGSGGGGSGGGGSAKNTTAPATTRNTTRGGEEKKKEKEKEEQEERTHTCPPCPSHTQPLGVFLFPPKPKDQLMISRTPEVTCVVVDVSQEDPEVQFNWYVDGVEVHNAKTKPREEQFNSTYRVVSVLTVLHQDWLNGKEYKCKVSNKGLPSSIEKTISKAKGQPREPQVYTLPPCQEEMTKNQVSLWCLVKGFYPSDIAVEWESNGQPENNYKTTPPVLDSDGSFFLYSRLTVDKSRWQEGNVFSCSVLHEALHNHYTQKSLSLSLGK
chain 2: HGDGSFSDEMNTILDGQAARDFINWLIQTKITDGGGGSGGGGSGGGGSEPKSSDKTHTCPPCPSHTQPLGVFLFPPKPKDQLMISRTPEVTCVVVDVSQEDPEVQFNWYVDGVEVHNAKTKPREEQFNSTYRVVSVLTVLHQDWLNGKEYKCKVSNKGLPSSIEKTISKAKGQPREPQVCTLPPSQEEMTKNQVSLSCAVKGFYPSDIAVEWESNGQPENNYKTTPPVLDSDGSFFLVSRLTVDKSRWQEGNVFSCSVLHEALHNHYTQKSLSLSLGK
B3: MG12-8 (Fc fusion)
chain 1: HGEGTFTSDVSSYLEGQAAKEFIAWLVKGGPSSGAPPPSGGGGSGGGGSGGGGSGGGGSGGGGSGGGGSHGEGTFTSDVSSYLEGQAAKEFIAWLVKGGPSSGAPPPSGGGGSGGGGSGGGGSEPKSSDKTHTCPPCPSHTQPLGVFLFPPKPKDQLMISRTPEVTCVVVDVSQEDPEVQFNWYVDGVEVHNAKTKPREEQFNSTYRVVSVLTVLHQDWLNGKEYKCKVSNKGLPSSIEKTISKAKGQPREPQVYTLPPCQEEMTKNQVSLWCLVKGFYPSDIAVEWESNGQPENNYKTTPPVLDSDGSFFLYSRLTVDKSRWQEGNVFSCSVLHEALHNHYTQKSLSLSLGK
chain 2: B2 chain 2

Legend:
[1] = biological target: GLP-1 receptor; assay: cell-based or functional assay
[2] = Anti-diabetic effect in db/db mice (blood glucose, HbA1c, insulin, HOMA-IR, HOMA-β); assay type: in vivo; conditions: 15 nmol/kg s.c. every three days for 12 weeks
Protocol: Specifically, 14-week-old male db/db mice (Janvier Labs, France) were subcutaneously injected every three days for 12 weeks with designated doses of Semaglutide, Tirzepatide, or the bispecific fusion protein MG12-8 according to one embodiment of the present invention. Subsequently, non-fasting blood glucose levels were measured at 25-day intervals (on days 25, 50, and 75 of the experiment), and HbA1c levels were measured monthly up to three months. Additionally, at the end of the experiment, fasting blood glucose and serum insulin concentrations were determined, and HOMA-IR and HOMA-β scores were calculated.

[3] = Histological analysis of pancreatic tissue of db/db mice; assay type: in vivo; conditions: pancreas after 12 weeks of dosing
From the text: Subsequently, after completion of the above experiment, the present inventors sacrificed the experimental animals and performed histological analysis of pancreatic tissues. Specifically, after euthanizing the animals under general anesthesia at the end of the animal study, the pancreas was excised, fixed in 4% paraformaldehyde, embedded in paraffin, sectioned transversely into 5 µm slices using a microtome, and then subjected to staining either with insulin alone, double staining with insulin and glucagon, or double staining with insulin and Ki-67. All double staining was carried out using fluorescent-labeled antibodies, followed by imaging with a confocal laser microscope.

[4] = Body weight in MASH model with intestinal leakage (CD-HFD + DSS); assay type: in vivo, C57BL/6J mice; conditions: 55 nmol/kg twice daily s.c., two weeks after first administration
From the text: (§1) Subsequently, the present inventors investigated the weight reduction and regulation of intestinal leakage in a metabolic dysfunction-associated steatohepatitis (MASH) animal model with intestinal leakage, using Liraglutide as a comparative control and MG12-8 according to one embodiment of the present invention. Specifically, twenty-week-old male C57BL/6J mice were obtained, and overweight was induced by feeding a choline-deficient high-fat diet (CD-HFD). In addition, intestinal leakage was induced by cyclically administering dextran sulfate sodium (DSS) at a low concentration of 1% for 7 days followed by 10 days of regular drinking water. After two weeks from the initiation of CD-HFD feeding, Liraglutide and MG12-8 were subcutaneously administered at their respective prescribed dosages and dosing intervals. Two weeks after the first administration, body weight was measured (FIG. 4a). To assess intestinal leakage, a fluorescein isothiocyanate (FITC)-Dextran (4 kDa) solution was administered orally 4 hours before sacrifice, after which the mice were fasted. The amount of FITC-Dextran translocated into the blood was then evaluated by measuring fluorescence intensity in serum.

[5] = Intestinal leakage (serum FITC-Dextran fluorescence) in MASH model (CD-HFD + DSS); assay type: in vivo, C57BL/6J mice; conditions: 55 nmol/kg twice daily s.c.
From the text: as §1

[6] = biological target: GLP-2 receptor; assay: cell-based or functional assay

| Molecule | GLP-1 activity (Set1), EC50 (nM); cAMP bioluminescence in GLP-1R-expressing CHO-K1 cells [1] [nM] | GLP-1 activity (Set1), Relative activity compared with hGLP-1 peptide (%) [1] [%] | GLP-1 activity (Set2), EC50 (nM); cAMP bioluminescence in GLP-1R-expressing CHO-K1 cells [1] [nM] | GLP-1 activity (Set2), Relative activity compared with hGLP-1 peptide (%) [1] [%] | GLP-2 activity, EC50 (nM); cAMP bioluminescence in GLP-2R-expressing CHO-K1 cells [6] [nM] | GLP-2 activity, Relative activity compared with hGLP-2 peptide (%) [6] [%] | further results |
| --- | --- | --- | --- | --- | --- | --- | --- |
| wild-type GLP-1 (human GLP-1 peptide) (from UniProt P01275 21-180) | 0.69 | 100 | 0.89 | 100 | – | – | – |
| CC[C@H](C)[C@H](NC(=O)[C@H](CC(C)C)NC(=O)[C@H](Cc1c[nH]c2ccccc12)NC(=O)[C@H](CCC(N)=O)NC(=O)[C@@H](NC(=O)[C@H](Cc1ccccc1)NC(=O)[C@H](C)NC(=O)[C@H](CCCCNC(=O)COCCOCCNC(=O)COCCOCCNC(=O)CC[C@H](NC(=O)CCCCCCCCCCCCCCCCCCC(=O)O)C(=O)O)NC(=O)[C@H](CCC(N)=O)NC(=O)[C@H](C)NC(=O)[C@@H](NC(=O)[C@H](CCCCN)NC(=O)[C@H](CC(=O)O)NC(=O)[C@H](CC(C)C)NC(=O)C(C)(C)NC(=O)[C@@H](NC(=O)[C@H](CO)NC(=O)[C@H](Cc1ccc(O)cc1)NC(=O)[C@H](CC(=O)O)NC(=O)[C@H](CO)NC(=O)[C@@H](NC(=O)[C@H](Cc1ccccc1)NC(=O)[C@@H](NC(=O)CNC(=O)[C@H](CCC(=O)O)NC(=O)C(C)(C)NC(=O)[C@@H](N)Cc1ccc(O)cc1)[C@@H](C)O)[C@@H](C)O)[C@@H](C)CC)[C@@H](C)CC)C(C)C)C(=O)N[C@@H](C)C(=O)NCC(=O)NCC(=O)N1CCC[C@H]1C(=O)N[C@@H](CO)C(=O)N[C@@H](CO)C(=O)NCC(=O)N[C@@H](C)C(=O)N1CCC[C@H]1C(=O)N1CCC[C@H]1C(=O)N1CCC[C@H]1C(=O)N[C@@H](CO)C(N)=O [Tirzepatide] | – | – | – | – | – | – | insulin resistance index (HOMA-IR) [2]: > 40; number of Ki-67-positive cells per 10,000 µm^2 [3]: showed no improvement compared with the control group |
| Liraglutide (HAEGTFTSDVSSYLEGQAAKEFIAWLVRGRG; REGION 1..31: note = Liraglutide) [GLP-1 receptor agonist marketed by Novo Nordisk as Victoza for the treatment of type 2 diabetes and obesity] | – | – | – | – | – | – | body weight compared with vehicle [4]: reduced body weights compared with the vehicle-administered group; intestinal leakage suppression activity (serum FITC-Dextran) [5]: did not exhibit intestinal leakage suppression activity relative to the control |
| wild-type GLP-2 (human GLP-2 peptide) | – | – | – | – | 1.18 | – | – |
| B1 | 1.57 | 44 | 1.12 | 79 | 2.42 | 49 | – |
| B2 | 0.35 | 194 | 0.57 | 156 | 50.8 | 2 | – |
| B3 | 0.81 | 85 | 0.71 | 125 | 19 | 6 | relative GLP-1 activity, MG12-8 Sample #1; cAMP bioluminescence in HEK-GLP-1R cells [1]: 100%; relative GLP-1 activity, MG12-8 Sample #2; cAMP bioluminescence in HEK-GLP-1R cells [1]: 200%; relative GLP-1 activity, MG12-8 Sample #3; cAMP bioluminescence in HEK-GLP-1R cells [1]: 300%; relative GLP-1 activity, MG12-8 Sample #4; cAMP bioluminescence in HEK-GLP-1R cells [1]: 400% |
